Experimental findings from patent publication EP1637166A2 are described below.

For test [1], the target named is mouse CCR5 (mCCR5) cloned from B6 mice, transiently expressed on HeLa-MAGI cells (mouse) (UniProt P51682). Put plainly: 0.5 nM 125I-labelled human RANTES on mCCR5-transfected HeLa-MAGI cells, no sera.
Test [2] has the same target. Put plainly: 0.5 nM 125I-labelled human RANTES on mCCR5-transfected HeLa-MAGI cells in a 1000-fold excess (500 nM) of cold human RANTES.

Sequence of UniProt P51682 (P51682 whole entry): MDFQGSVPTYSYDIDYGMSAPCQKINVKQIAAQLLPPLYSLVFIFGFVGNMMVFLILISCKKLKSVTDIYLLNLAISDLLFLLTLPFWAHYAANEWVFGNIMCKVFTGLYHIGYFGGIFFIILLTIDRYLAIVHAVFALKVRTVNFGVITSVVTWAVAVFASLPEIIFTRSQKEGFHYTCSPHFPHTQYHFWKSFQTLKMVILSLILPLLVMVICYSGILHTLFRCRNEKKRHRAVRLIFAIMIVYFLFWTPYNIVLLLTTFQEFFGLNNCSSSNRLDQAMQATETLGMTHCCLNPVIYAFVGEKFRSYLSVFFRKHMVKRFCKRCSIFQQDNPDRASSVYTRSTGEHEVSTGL

“125I-labelled human RANTES (Amersham) (from UniProt P13501 24-91) (ligand)” gave a maximally bound iodinated RANTES in test [1] of 2550 cpm. In test [2], this substance returned a non-specific binding of iodinated RANTES of 1300 cpm.
